Data taken from patent US11260100B2, “Compositions targeting the interaction domain between p27Kip1 and Brk and methods of use thereof to inhibit p27 Y phosphorylation and cdk4 activity” (The Research Foundation for the State University of New York, priority 2014, dated 2022).

Key:
[1] = test system: MCF-7 inducible ALT cells; test: Mouse xenograft model, MCF7-ALT tumors; format: in vivo, NOD/SCID mice; conditions: day 17; start volume 200 mm3; Palbociclib 100 mg/kg daily gavage, doxycycline 0.1 mg/ml in drinking water
Method: FIG. 14: ALT slows tumor growth in animals, and ALT and PD dual treatment causes tumor regression. MCF-7 inducible ALT cells were injected into the 4th mammary gland of NOD/SCID mice. Tumors were allowed to develop to a volume of 200 mm3, before treatment. Vehicle: daily gavage with PBS. PD: Daily gavage of Palbociclib 100 mg/kg. Doxy: 0.1 mg/ml doxycycline added to the drinking water to allow continuous uptake and induction of ALT in the human cancer cells. Doxy+PD: Daily gavage of Palbociclib 100 mg/kg and 0.1 mg/ml doxycycline added to the drinking water. Vehicle treated animals rapidly progressed and by 17 days, tumor volumes were >3000 mm PD treatment slowed down tumor growth but by day 17, tumors were >2500. […] However, dual ALT and PD (doxy/PD) treatment, caused tumor regression by […] (e.g., from 200 mm3 down to 0-40 mm3), by day 5, which was durable up to day 19.
NP-ALT was added to cell media in the absence of fetal bovine serum for 6 hours. This media was removed and replaced with FBS+media, and cells were allowed to recover for 2 days, at which time, cell counts were determined. Counts were standardized to the proliferation seen in the NO FBS untreated control. • Expression in vivo. […] Tumor volume was monitored every other day using digital calipers. […] Doxy+PD: Daily gavage of Palbociclib 100 mg/kg and 0.1 mg/ml doxycycline added to the drinking water. • Quantitative RT-PCR. […]

MCF7 cells = test: Tetracycline inducible Alt Brk expression in MCF7 cells; format: cell-based, human; conditions: +Tet
Method: FIGS. 8A-8G: Alt Brk (SEQ ID NO: 17) acts as an endogenous inhibitor of Brk. (FIG. 8A) Flag tagged WT p27 was incubated with increasing amount of Flag tagged Alt-Brk (lanes 5-7) in presence of equal amount of Brk. Lane 5: +equimolar Brk and Alt, lane 6: ++2.5×Alt, lane 7: +++5×Alt Immunoblot analysis was performed using Flag, pY88 and pY74 antibodies. (FIG. 8B) Alt-Brk expressing cells were plated on day 0. They were induced (+Tet) or uninduced (−Tet) on day 1 and cells were harvested on days 2, 3 and 4 Immunoblot analysis was performed using N-terminal Brk, C-terminal Brk, Rb, Ser780 pRb, Flag or Actin antibodies. (FIG. 8C) p27 was immunoprecipitated from induced (+) or un-induced (−) Alt Brk expressing cells and immunoblot analysis was performed with p27, pY88 and pY74 antibodies. (FIG. 8D) Alt Brk or TRE3G vector alone cells were treated with + or −Tet and cell counts were used to monitor proliferation. […] (FIG. 8F) p27 was immunoprecipitated from MCF7 cells that were either contact arrested (G0), asynchronous (A), or serum starved with 1% and 0% serum for 48 h. Immunoblot analysis was performed to probe for p27, pY88 and pY74. IgG and Mv1Lu lysates served as a negative control. (FIG. 8G) Expression of WT or mutant p27s was induced by adding Tetracycline to the culture media. p27 was immunoprecipitated from cell lysates and probed for p27, pY88 and pY74 Immunoprecipitation with IgG served as a negative control.
NP-ALT was added to cell media in the absence of fetal bovine serum for 6 hours. This media was removed and replaced with FBS+media, and cells were allowed to recover for 2 days, at which time, cell counts were determined. Counts were standardized to the proliferation seen in the NO FBS untreated control. • Expression in vivo. Generation of the WT-Brk, KM-Brk, and YF-Brk has been described (32) Amphotropic retroviruses were generated by transfection using Lipofectamine 2000 (Life Technologies 11668-019) of HEK 293 cells with pAmpho envelope and pBabe or pTRE3G tetracycline inducible constructs. Following viral infection of MCF7 cells, stable integrants were isolated by puromycin selection. Colonies were pooled to generate stable, puromycin resistant clones. Stable expression was verified by immunoblot and immunofluorescence analysis. Tetracycline inducible expression was achieved by the addition of TetExpress (Clontech) to the media. • Mouse xenograft model. Female NOD/SCID 8 week old mice were injected with MCF7-ALT cells in the 4th mammary gland. Tumors were allowed to develop to a volume of 200 mm3, before treatment. Tumor volume was monitored every other day using digital calipers. Vehicle: daily gavage with PBS. […] Doxy+PD: Daily gavage of Palbociclib 100 mg/kg and 0.1 mg/ml doxycycline added to the drinking water. • Quantitative RT-PCR. […]

B1: Alt-Brk: alternative splice variant of Brk (SEQ ID NO: 17), 15 KD protein with SH3 domain, lacks kinase domain (protein, listed as Homo sapiens)
chain: MVSRDQAHLGPKYVGLWDFKSRTDEELSFRAGDVFHVARKEEQWWWATLLDEAGGAVAQGYVPHNYLAERETVESEPAGHAGCAALQDLAACRGPAAPERGGVLPQPARACELPQGPEPVPRPAAGRALPEARA
With B1 the tumor volume [1] was roughly 1500 mm3, the “Rb phosphorylation on residue Ser780” value (MCF7 cells) was “Rb phosphorylation was reduced” and the “cell cycle effect (cell counting, FACS)” value (MCF7 cells) was “arrested in G1 phase”. The “endogenous p27 Y74 phosphorylation” value (MCF7 cells) was “unchanged” and the “endogenous p27 Y88 phosphorylation” value (MCF7 cells) was “reduced”.
